Experimental data taken from patent US20170305994A1 (Novo Nordisk, published 2017).
Read-outs that look alike come from different tables or passages of the source.

Key:
[1] = target: T1, human DR3 (full length, on cells) (human, UniProt Q93038 25-417); assay: flow cytometry on CD3/CD28-stimulated human CD4+ T cells
T1 construct: also called hDR3; Death Receptor 3
T1 sequence: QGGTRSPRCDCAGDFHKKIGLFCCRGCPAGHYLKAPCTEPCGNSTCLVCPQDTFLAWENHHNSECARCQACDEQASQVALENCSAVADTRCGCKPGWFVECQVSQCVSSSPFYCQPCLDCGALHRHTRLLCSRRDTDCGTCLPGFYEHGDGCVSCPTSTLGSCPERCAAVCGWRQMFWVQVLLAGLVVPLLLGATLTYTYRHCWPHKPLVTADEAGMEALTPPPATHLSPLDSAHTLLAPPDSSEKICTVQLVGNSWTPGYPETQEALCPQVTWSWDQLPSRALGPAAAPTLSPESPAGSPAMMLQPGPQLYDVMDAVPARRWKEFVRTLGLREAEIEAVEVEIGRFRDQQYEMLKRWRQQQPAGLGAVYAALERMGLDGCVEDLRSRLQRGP
Protocol: Human CD4-positive T cells were purified from Buffy coats using CD4 Rosettesep (Stem cell technologies) and Histopaque (Sigma). T cells were stimulated with CD3/CD28 Dynabeads (Invitrogen) at a 1:1 ratio for 4 days in T75 flask at 2 mio CD4 T cells/ml in RPMI supplemented with 10% fcs. Beads were removed using a magnet, and cells were washed twice before titrating in antibodies on 500.000 cells/staining. Binding saturation was measured after incubation with goat-anti-mouse phycoerythrin (Jackson ImmunoResearch) and cells were subsequently analysed by flow cytometry on a BD LSRII. All antibodies reached saturation at 3 μg/ml.

DR3 (CRD1)-Fc = target: T2, DR3 (CRD1)-Fc (human); assay: SPR, Biacore T100, DR3-Fc fusion immobilised
T2 construct: Amino acids 25-71 of DR3 fused to the Fc domain of human IgG4; purified to exclude oligomers (mainly dimeric)
Excerpt: The extracellular moiety of DR3 is located at the aminoterminal portion of DR3 and is comprised of four TNF receptor cysteine-rich domains. Several fusion proteins were expressed and purified which contained parts of the extracellular domain of DR3 of increasing length fused to the Fc domain of a human IgG4. The DR3 proteins used for SPR analysis had been purified to exclude oligomerized material. These proteins were immobilized to a CM5 sensor chip using amine coupling chemistry. Binding of anti-DR3 antibodies termed 0070, 0072, 0073 and 0076, to the different DR3-Fc fusion proteins was tested by means of plasmon surface binding measurements on a Biacore T100 instrument (GE Healthcare). All of these antibodies inhibit binding of TL1A to DR3 in a FACS assay. These 4 antibodies bound to recombinant DR3 (CRD1)-Fc protein that contained only the aminoterminal CRD (SEQ ID NO:2) comprised of amino acids 25-71 of DR3.

[2] = target: T1, human DR3 (full length, on cells); assay: flow cytometry on IL-12/IL-18/TL1A activated CD4+ T cells, 1 µg/ml
Protocol: (§1) Buffy Coats were obtained from normal healthy volunteers from Copenhagen University Hospital. CD4+ T cells were isolated through magnetic bead separation. Cells were activated with 2 ng/ml IL-12, 50 ng/ml IL-18 and 100 ng/ml TL1A (Flag-HIS-TEV-TL1A-produced at Novo Nordisk A/S) and cultured for 5 days. On day 5 cells were stained with 10, 5, 1, 0.5, 0.1 or 0.0001 μg/ml of the anti-DR3 mAb clones 0072, 0073, or 0077, or with Fab fragment clones 0087, 0088 and 0091. A secondary PE conjugated goat-anti-mouse (H+L) was used for detection.
The greater observed MFI values of IgG treated compared with Fab treated cells was expected since the secondary (detecting) antibody (anti-IgG heavy and light chain) bound to both Fab and Fc parts of the full-length IgG antibody clones, but only to Fab parts of Fab clones (Table 9).

[3] = target: T1, human DR3 (full length, on cells); assay: cell-based or functional assay
[4] = target: T1, human DR3 (full length, on cells); assay: cell-based or functional assay; remark: listed apart in the source
[5] = target: T1, human DR3 (full length, on cells); assay: flow cytometry on IL-12/IL-18/TL1A activated CD4+ T cells, 1 µg/ml; remark: listed apart in the source
Protocol: as §1
as §1, with “Material and Methods: Buffy” for “Buffy”, “Copenhagen” for “Copenhagen University”, “0088 or” for “0088 and”, “detection. Samples were in duplicate. Staining intensity was evaluated by FACS.” for “detection.”

DR3 (ECD)-Fc = target: T3, DR3 (ECD)-Fc (human); assay: HX-MS with hDR3 ECD-Fc
T3 construct: ECD of DR3, a linker with a TEV cleavage site and the Fc part of human IgG4; dimeric fraction used; also called DR3-Fc; hDR3-Fc
Protocol: The Leap robot was equipped with two temperature controlled stacks maintained at 20° C. for buffer storage and HX reactions and maintained at 2° C. for storage of protein and quench solution, respectively. The Waters HDX system furthermore contained a temperature controlled chamber holding the pre- and analytical columns, and the LC tubing and switching valves at 1° C. A separately temperature controlled chamber holds the pepsin column at 25° C. […] The resulting peptides were trapped and desalted on a VanGuard pre-column BEH C18 1.7 μm (2.1×5 mm (Waters Inc.)). Subsequently, the valves were switched to place the pre-column inline with the analytical column, UPLC-BEH C18 1.7 μm (1×100 mm (Waters Inc.)), and the peptides separated using a 9 min gradient of 10-40% B delivered at 200 μl/min from the nanoAQUITY UPLC system (Waters Inc.). The mobile phases consisted of A: 0.1% formic acid and B: 0.1% formic acid in CH₃CN. The ESI MS data, and the separate elevated energy (MS^E) experiments were acquired in positive ion mode using a Synapt G2 mass spectrometer (Waters Inc.).
All HX reactions were carried out at 20° C. and contained […] hDR3 in the absence or presence of […] Fab thus giving a 5 fold molar excess of Fab. […]

B1: 0070 (murine mAb purified from hybridoma 27F16A1) (antibody, V domains shown)
VH: EVQLVESGGDFVKPGGSLKLSCAASGFTFNNYGMSWVRQTPDKRLEWVAAISSGVTYTYYPDTVKGRFTISRDNAKNTLYLHMSSLKSEDTAMYYCGRHDDYGNHFDYWGQGTTLTVSS
VL: DIVMTQSPSSLAMSLGQRVTMNCKSSQSLLNSHNQKNYLAWYQQKPGQSPKLLVYFASSRESGVPDRFIGSGSGTDFTLTISSVQAEDLADYFCQQHYSTPFTFGSGTKLEIKR
notes: murine IgG1, kappa; also called 0083
Q: Which results are given for B1?
A: Median Fluorescent Intensity [1]: 2330; Staining index (MFI Ab/MFI Isotype) [1]: 10.5; saturation concentration [1]: 3 µg/mL; binding result (DR3 (CRD1)-Fc): binds

B2: 0072 (murine mAb purified from hybridoma 27F44A2) (antibody, mouse IgG1, V domains shown)
VH: EVKLVESGGGLVKPGGSLKLSCSASGFAFSNYDMSWVRQTPEKRLEWVAAFSSDGYTFYPDSLKGRFTISRDNARNTLYLQMSSLGSEDTALYCCARHADYANYPVMDYWGQGTSVTVSS
VL: DIVLAQSPASLLVSLGQRATISCRASKSVSTSGYSYMHWYQQKPGQPPKLLIYLASNLESGVPARFSGSGSGTDFTLNIHPVEEEDAATYYCQHSRELPLTFGAGTMLELKR
notes: murine IgG1, kappa; also called 0084
Q: For B2, which “Median Fluorescent Intensity” value [1] is on record?
A: 2650

Q: What about the “Staining index (MFI Ab/MFI Isotype)” value [1] of the same binder?
A: 11.9

Q: And the saturation concentration [1]?
A: 3 µg/mL

Q: And the MFI [2]?
A: 1300 MFI

Q: And the “fold response, DR3 reporter, 40 ng/ml TL1A + 0.000256 microg/ml” value [3]?
A: 33.8 fold

Q: What about the “fold response, DR3 reporter, 40 ng/ml TL1A + 0.00128 microg/ml” value [3] of the same binder?
A: 37.2 fold

Q: And the “fold response, DR3 reporter, 40 ng/ml TL1A + 0.0064 microg/ml” value [3]?
A: 40.3 fold

Q: What about the “fold response, DR3 reporter, 40 ng/ml TL1A + 0.032 microg/ml” value [3] of the same binder?
A: 41 fold

Q: And the “fold response, DR3 reporter, 40 ng/ml TL1A + 0.08 microg/ml” value [3]?
A: 38.4 fold

Q: And the “fold response, DR3 reporter, 40 ng/ml TL1A + 4 microg/ml” value [3]?
A: 34 fold

Q: And the “fold response, DR3 reporter, 40 ng/ml TL1A + 20 microg/ml” value [3]?
A: 27.8 fold

Q: And the “fold response, DR3 reporter, 40 ng/ml TL1A + 100 microg/ml” value [3]?
A: 18.4 fold

Q: What about the “fold response, DR3 reporter, no TL1A, 0.000256 microg/ml” value [3] of the same binder?
A: 1.1 fold

Q: What about the “fold response, DR3 reporter, no TL1A, 0.00128 microg/ml” value [3] of the same binder?
A: 2.2 fold

Q: And the “fold response, DR3 reporter, no TL1A, 0.0064 microg/ml” value [3]?
A: 9.3 fold

Q: What about the “fold response, DR3 reporter, no TL1A, 0.032 microg/ml” value [3] of the same binder?
A: 18.6 fold

Q: What about the “fold response, DR3 reporter, no TL1A, 0.08 microg/ml” value [3] of the same binder?
A: 25.1 fold

Q: And the “fold response, DR3 reporter, no TL1A, 4 microg/ml” value [3]?
A: 21.1 fold

Q: What about the “fold response, DR3 reporter, no TL1A, 20 microg/ml” value [3] of the same binder?
A: 16.3 fold

Q: And the “fold response, DR3 reporter, no TL1A, 100 microg/ml” value [3]?
A: 9.2 fold

Q: Does B2 bind (DR3 (CRD1)-Fc)?
A: binds

Q: What about the “fold response, DR3 reporter, 40 ng/ml TL1A + 0.1 microg/ml” value [4] of the same binder?
A: 29.6 fold

Q: And the “fold response, DR3 reporter, 40 ng/ml TL1A + 1 microg/ml” value [4]?
A: 24.8 fold

Q: What about the “fold response, DR3 reporter, 40 ng/ml TL1A + 10 microg/ml” value [4] of the same binder?
A: 23.3 fold

Q: What about the “fold response, DR3 reporter, 40 ng/ml TL1A + 100 microg/ml” value [4] of the same binder?
A: 13.6 fold

Q: And the “fold response, DR3 reporter, no TL1A, 0.1 microg/ml” value [4]?
A: 20.6 fold

Q: And the “fold response, DR3 reporter, no TL1A, 1 microg/ml” value [4]?
A: 19.8 fold

Q: And the “fold response, DR3 reporter, no TL1A, 10 microg/ml” value [4]?
A: 17.3 fold

Q: What about the “fold response, DR3 reporter, no TL1A, 100 microg/ml” value [4] of the same binder?
A: 8.5 fold

Q: What about the MFI [5] of the same binder?
A: 1300 MFI

B3: 0163 (chimeric Fab of 45F187, human IgG4 constant domain, hinge Cys->Ser) (Fab, V domains shown)
VH: EVQLVESGGGLVQPGGSLRLSCATSGFTFTNYYMAWVRKPPGKTLEWLGFMRNIVNGYTTDYSGSVEGRFTISRDNSQSILYLQMNALRPEDSATYYCARDIGYRYDGGGYGLDYWGQGTSVTVSS
VL: DIQMTQSPASLSASVGETVTLTCRASGNIHNYLTWYQQKQGKSPQLLVYNVKTLADGVSSRFSGSGSGTQFSLKINSLQPEDFGSYYCQHFWTTPYTFGGGTKLEIRR
notes: IgG4-Ser, chimeric; also called 0150
Q: Does B3 bind (DR3 (ECD)-Fc)?
A: binds
